In paper PMC6304784:

What was measured:
[1] = biological target: N-terminally GFP-tagged full-length wild-type MyD88 (human) (UniProt Q99836); test: fluorescence correlation spectroscopy (FCS); GFP-tagged protein in the cell-free expression mixture; single diffusing species model; hydrodynamic radius normalised to sfGFP
[2] = biological target: mCherry-tagged full-length wild-type MyD88 (human) (UniProt Q99836); test: two-colour single-particle coincidence spectroscopy (seeding assay); mCherry-tagged full-length MyD88 filaments spun down and sonicated ('seeds') added to GFP-tagged full-length MyD88 expressed over a range of concentrations (10 nM and above); 488 nm and 561 nm lasers; traces of 180 s
[3] = biological target: N-terminally GFP-tagged full-length wild-type MyD88 (human) (UniProt Q99836); test: single-molecule fluorescence fluctuation spectroscopy (brightness B parameter, time-traces, intensity histograms); GFP-tagged protein freely diffusing in the cell-free expression mixture on a confocal microscope, 488-nm laser; dilution series of the DNA template giving 0 to about 320 nM protein; mutants compared at 150 nM; samples diluted 10 times in buffer A

Sequence of mCherry-tagged full-length wild-type MyD88 (human) (Q99836 whole entry): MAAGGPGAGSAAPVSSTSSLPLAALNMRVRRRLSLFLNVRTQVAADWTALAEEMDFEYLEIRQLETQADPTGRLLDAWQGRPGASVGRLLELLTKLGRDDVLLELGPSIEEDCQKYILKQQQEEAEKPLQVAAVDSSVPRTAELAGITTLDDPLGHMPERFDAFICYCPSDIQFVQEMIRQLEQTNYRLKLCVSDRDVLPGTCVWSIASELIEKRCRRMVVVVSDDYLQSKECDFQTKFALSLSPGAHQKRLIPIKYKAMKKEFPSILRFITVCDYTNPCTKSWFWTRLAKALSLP

stoichiometry N (monomeric units) [1]: > 100
critical concentration for aggregation (Cc) [3]: 150 nM
stoichiometry N [3]: > 100 proteins
Substance: N-terminally GFP-tagged full-length wild-type MyD88 (from UniProt Q99836 1-296) (natural protein)
critical concentration for polymerisation in the presence of seeds [2]: 10 nM
